Results on three molecules are retold here after patent US20120316071A1 (published 2012).

Assay [1] has as its target T1, rHuman P-Cadherin/Fc Chimera, CF (R&D Systems Cat#861-PC) (human, UniProt P22223 108-654).
T1 construct: Bought reagent; Fc part of the bought chimera not given
The assay can be described thus: ECL Multispot (MSD) assay, antigen spotted on plate, 10 nM Fab; blank spot of this row 344.

The target of assay [2] is T2, rHuman CD44/Fc Chimera, CF (R&D Systems Cat#3660-CD) (human, UniProt P16070 21-220).
T2 construct: Bought reagent; Fc part of the bought chimera not given
The description is as above.

Assay [3] addresses T3, rHuman Notch-1/Fc Chimera, CF (R&D Systems Cat#3647-TK) (human, UniProt P46531 19-526).
T3 construct: Bought reagent; Fc part of the bought chimera not given
Described as above.

The target in assay [4] is T4, rHuman HGF R/c-MET/Fc Chimera, CF (R&D Systems Cat#358-MT/CF) (human, UniProt P08581 25-932).
T4 construct: Bought reagent; also called HGF R/Fc; hepatocyte growth factor receptor; Fc part of the bought chimera not given
The assay is described as above.

Assay [5] addresses T5, rHuman ErbB2/Fc Chimera, CF (R&D Systems Cat#1129-ER) (human, UniProt P04626 23-652).
T5 construct: Bought reagent; also called human epidermal growth factor 2 receptor; Fc part of the bought chimera not given
The description is as above.

Assay [6] concerns the target T6, rHuman EGF R/Fc Chimera, CF (R&D Systems Cat#344-ER) (human, UniProt P00533 25-645).
T6 construct: Bought reagent; also called epidermal growth factor receptor; Fc part of the bought chimera not given
Described as above.

The target in assay [7] is T7, rHuman IGF-1 sR, CF (R&D Systems Cat#391-GR) (human, UniProt P08069 31-932).
T7 construct: Bought soluble receptor; The column head prints only 'IGF-1'; also called insulin-like growth factor-1 soluble receptor
The assay is described as above.

The target in assay [8] is T8, rHuman Erythropoietin R/Fc Chimera, CF (R&D Systems Cat#963-ER) (human, UniProt P19235 25-250).
T8 construct: Bought reagent; also called EPO R; EPO R/Fc; Fc part of the bought chimera not given
T8 sequence (looked up): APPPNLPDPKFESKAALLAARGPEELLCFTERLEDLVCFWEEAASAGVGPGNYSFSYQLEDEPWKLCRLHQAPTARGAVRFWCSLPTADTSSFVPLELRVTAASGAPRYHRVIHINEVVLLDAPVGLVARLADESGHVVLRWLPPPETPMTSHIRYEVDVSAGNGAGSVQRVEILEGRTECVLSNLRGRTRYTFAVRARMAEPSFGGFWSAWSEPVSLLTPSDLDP
The description is as above.

Assay [9] has as its target T9, rHuman Erythropoietin R/Fc Chimera, CF (R&D Systems Cat#963-ER) (human, UniProt P19235 25-250).
T9 construct: Bought recombinant protein; also called EPO R/Fc; Epo R; Fc part of the bought chimera not given
T9 sequence (looked up): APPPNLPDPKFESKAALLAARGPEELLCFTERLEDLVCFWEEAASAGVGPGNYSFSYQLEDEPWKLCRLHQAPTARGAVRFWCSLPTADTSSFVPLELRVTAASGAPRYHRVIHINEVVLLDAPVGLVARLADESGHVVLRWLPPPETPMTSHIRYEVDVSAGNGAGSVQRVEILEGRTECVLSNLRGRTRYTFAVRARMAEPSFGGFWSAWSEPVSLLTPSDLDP
As to the kind of experiment: Multispot ECL (MSD), antigen spotted on plate, Fab 1000 nM; blank spot 1133.

The target in assay [10] is T10, Recombinant Human DLL4 (R&D Systems Cat#1506-D4/CF) (human, UniProt Q9NR61 27-524).
T10 construct: Bought recombinant protein; also called rHuman DLL4; delta-like protein 4
The description is as above.

Assay [11] concerns the target T11, rHuman Notch-1/Fc Chimera, CF (R&D Systems Cat#3647-TK) (human, UniProt P46531 19-526).
T11 construct: Bought recombinant protein; Fc part of the bought chimera not given
Described as above.

Assay [12] deals with T12, rHuman IGF-1 sR, CF (R&D Systems Cat#391-GR) (human, UniProt P08069 31-932).
T12 construct: Bought recombinant soluble receptor; also called insulin-like growth factor-1 soluble receptor
The assay is described as above.

Assay [13] addresses T13, rHuman Notch-1/Fc Chimera, CF (R&D Systems Cat#3647-TK) (human, UniProt P46531 19-526).
T13 construct: Bought reagent; Fc part of the bought chimera not given
The assay can be described thus: MSD Multispot ECL, antigen spotted on plate, Fab 130 nM; blank spot 1153.

Assay [14] concerns the target T14, rHuman ErbB2/Fc Chimera, CF (R&D Systems Cat#1129-ER) (human, UniProt P04626 23-652).
T14 construct: Bought reagent; also called human epidermal growth factor 2 receptor; Fc part of the bought chimera not given
The assay is described as above.

The target in assay [15] is T15, rHuman EGF R/Fc Chimera, CF (R&D Systems Cat#344-ER) (human, UniProt P00533 25-645).
T15 construct: Bought reagent; also called epidermal growth factor receptor; Fc part of the bought chimera not given
The description is as above.

For assay [16], the target named is T16, rHuman HGF R/c-MET/Fc Chimera, CF (R&D Systems Cat#358-MT/CF) (human, UniProt P08581 25-932).
T16 construct: Bought reagent; also called HGF R/Fc; hepatocyte growth factor receptor; Fc part of the bought chimera not given
Described as above.

For assay [17], the target named is T17, rHuman CD44/Fc Chimera, CF (R&D Systems Cat#3660-CD) (human, UniProt P16070 21-220).
T17 construct: Bought reagent; Fc part of the bought chimera not given
The assay is described as above.

B1: Fab VH1-46_IGHD6-6*01_IGHJ1*01 S102A/S103P/S104F (APF) & L6_IGKJ1*01 (Fab, V domains shown)
VH: QVQLVQSGAEVKKPGASVKVSCKASGYTFTSYYMHWVRQAPGQGLEWMGIINPSGGSTSYAQKFQGRVTMTRDTSTSTVYMELSSLRSEDTAVYYCAREEYAPFSAEYFQHWGQGTLVTVSS
VL: not shown
notes: Tested as a Fab made in E. coli; also called H:APF & L:wt; APF triple mutant
Take B1: the ECL signal in [1] turned out to be 293; in assay [2], 417; in assay [3] it was 363; in assay [4] it was 434; in assay [5], 356; in assay [6], 371. The ECL signal stood at 293 in assay [7] and 389 in assay [8].

B2: Fab VH1-46_IGHD6-13*01_IGHJ4*01 & B3_IGKJ1*01 (Fab, V domains shown)
VH: QVQLVQSGAEVKKPGASVKVSCKASGYTFTSYYMHWVRQAPGQGLEWMGIINPSGGSTSYAQKFQGRVTMTRDTSTSTVYMELSSLRSEDTAVYYCAREGYSSSWYDYFDYWGQGTLVTVSS
VL: not shown
notes: Germline Fab made in E. coli; VH was cloned into Plasmid A (CH1, His6 and Flag tags) and the kappa VL into Plasmid C (kappa CL)
As for B2, the ECL signal in assay [9] turned out to be 8590; in assay [10] it was 2780; in [11], 2270; in [12] it was 1670.

B3: Fab VH1-8_IGHD2-2*01_IGHJ6*01 & L12_IGKJ1*01 (Fab, V domains shown)
VH: QVQLVQSGAEVKKPGASVKVSCKASGYTFTSYDINWVRQATGQGLEWMGWMNPNSGNTGYAQKFQGRVTMTRNTSISTAYMELSSLRSEDTAVYYCARGGYCSSTSCYADYYYYYGMDVWGQGTTVTVSS
VL: not shown
Consider B3, for which the ECL signal was 1760 in assay [13]; 1530 in assay [14]; 1750 in [15]; 1880 in [16]; 1750 in assay [17].
